The text below walks through data of the supplement of paper PMC12764529.

± gives the half width of the 95% confidence interval.

Data set [1] in a line: folding stability dG unfold from chymotrypsin proteolysis; higher = more stable. The gist of the method: (§1)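 Unfolding free energy was derived, per protease or combined, by relating Bayesian-fitted K50 values from sequencing counts to a sequence-predicted unfolded-state K50 and a shared folded-state K50. The underlying digests exposed cysteine-free mini-proteins under 80 residues, in a PA-tagged cDNA display construct, to trypsin and chymotrypsin at 11 threefold-diluted concentrations and to a no-protease condition. A filter kept only designs with AlphaFold2 dimer inter-PAE above 15.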

Data set [2] can be described thus: folding stability dG unfold from trypsin proteolysis; higher = more stable. The gist of the method:
as §1

Data set [3] in a line: folding stability dG unfold (combined trypsin and chymotrypsin); higher = more stable. The gist of the method: as §1

Take “SAGGMIPVSPEQYKAVEKLLKEGKDGSTVLVKTEDGRYIEIDPAGTARFFGDKPKEFPLEKIKKIIPSAGGS [r16_664_TrMRF]”: the “folding stability dG unfold” value in data set [1] is 0.469 ± 0.14 kcal/mol; in data set [2], -0.209 ± 0.13 kcal/mol; in data set [3], 0.235 ± 0.12 kcal/mol.

Consider “SAGGMITEEEILELEKRIREAAEAGDPETVEEELERAKEALEEYKKKGNKELLKKVEEIVKRAEELIASAGG [r13_137_JUSTAS]”, for which the “folding stability dG unfold” value was 2.7 ± 0.14 kcal/mol in data set [1], 3.8 ± 0.2 kcal/mol in data set [2] and 3.35 ± 0.26 kcal/mol in data set [3].

As for “SAGGMKEIEIDIPLENGEPAKIRIILLNLPDKPRAFIDIESKILPKEEIAKIITKLLPEEIKEVVIDESAGG [r13_404_TrMRF]”, the “folding stability dG unfold” value in data set [1] is 0.383 ± 0.5 kcal/mol; in data set [2], 1.03 ± 0.092 kcal/mol; in data set [3] it was 0.694 ± 0.28 kcal/mol.

For the sequence “SAGGMKFKIVKIEVKEDKVTIEIEAETEEELEEAKKLAEELAKKLGLSKEKIEVKIELRPPPEEEEEESAGG [r13_430_TrROS_Hall]”, the “folding stability dG unfold” value is 2.19 ± 0.15 kcal/mol in data set [1], 2.43 ± 0.23 kcal/mol in data set [2] and 2.55 ± 0.52 kcal/mol in data set [3].

On to “SAGGMKIEGMTPEEVEALAKALAEAGYEVVSVTVTYDPETDTVTVTVVVRDKKTGEIKKVVTVTLPPSAGGS [r16_750_TrROS_Hall]”, for which the “folding stability dG unfold” value stood at 2.69 ± 0.069 kcal/mol in data set [1], 3.33 ± 0.1 kcal/mol in data set [2] and 2.99 ± 0.072 kcal/mol in data set [3].

With “SAGGMKIEIEIEMTPEEVRKAIEELAKALGLKIVKVEVEVERKEDGTLRVRVTIEIEPLPEEELEPESAGGS [r8_374_TrROS_Hall]”, the “folding stability dG unfold” value in data set [1] came to 4.32 ± 0.18 kcal/mol; in data set [2] it was 3.63 ± 0.16 kcal/mol; in data set [3], 4 ± 0.25 kcal/mol.

With “SAGGMKIEIKIIDEETGEEITITVTMTPEEIEKLAKELEEKYPGLEIVSVEIEEKDGEIIITIKIKKKSAGG [r13_196_TrROS_Hall]”, the “folding stability dG unfold” value in data set [1] stood at 2.71 ± 0.071 kcal/mol; in data set [2], 3.75 ± 0.25 kcal/mol; in data set [3] it was 3.29 ± 0.21 kcal/mol.

Take “SAGGMKIEIVEVTPTRIRIRLENGEVLTLEEIRKLLEEEGLPEPMTVDQIAELLRKRGLKITEIEIVPSAGG [r13_610_TrROS_Hall]”: the “folding stability dG unfold” value in data set [1] came out at 3.274 ± 0.025 kcal/mol; in data set [2], 2.97 ± 0.052 kcal/mol; in data set [3], 3.18 ± 0.083 kcal/mol.

Regarding “SAGGMKIIPLEEAEKFIEANPDKELVIGVRPGESLYLFVVKRDPDKPFNIEVLEVIEFDPDGNGRHLPSAGG [r13_481_TrMRF]”, the “folding stability dG unfold” value was 1.6 ± 0.1 kcal/mol in data set [1], 1.14 ± 0.11 kcal/mol in data set [2] and 1.3 ± 0.16 kcal/mol in data set [3].

On to “SAGGMKIKAEDIVSVEVTYNEETNELTVKVTVRINGKEVTLTFPEGMSEEELKRLLEELIKKGELEIESAGG [r13_225_TrROS_Hall]”, for which the results for the “folding stability dG unfold” value in data set [1], in data set [2] and in data set [3] were 2.96 ± 0.1 kcal/mol, 2.19 ± 0.12 kcal/mol and 2.78 ± 0.11 kcal/mol, respectively.

As for “SAGGMKIKDFEPVRVDENGMYVIDLKYEDPDNGNEYQVEFMIPNPPGNMHPITFTMKSPEDALDEILKSAGG [r13_26_TrROS]”, the “folding stability dG unfold” value in data set [1] was -0.325 ± 0.28 kcal/mol; in data set [2], -0.845 ± 0.27 kcal/mol; in data set [3], -0.445 ± 0.13 kcal/mol.

In the case of “SAGGMKIKIKIKPGQVILIKIRNKETGEEKTILVEVKEDQEITIELPEGYEIVDIKIVPLEDLPEEELSAGG [r13_119_TrROS_Hall]”, the “folding stability dG unfold” value in data set [1] turned out to be 3.96 ± 0.17 kcal/mol; in data set [2], 3.94 ± 0.3 kcal/mol; in data set [3] it was 4.05 ± 0.23 kcal/mol.

Regarding “SAGGMKIKITEVTVTRYYYDPKTGKLKKVEKVKVLVIEVELEPGQTAEEIAAALKKLFPDLKIVVVDSAGGS [r8_30_TrROS_Hall]”, the “folding stability dG unfold” value is 5.33 ± 0.11 kcal/mol in data set [1], 4.14 ± 0.092 kcal/mol in data set [2] and 5.17 ± 0.18 kcal/mol in data set [3].

In the case of “SAGGMKIKKITVEKNPETGELVVTVEVEINGKKYKFTFYKDGTVKVEVEVNGKKVTITLPVEELKKLSAGGS [r8_238_TrROS_Hall]”, the “folding stability dG unfold” value in data set [1] amounted to 3.8 ± 0.063 kcal/mol; in data set [2], 2.13 ± 0.058 kcal/mol; in data set [3], 3.35 ± 0.13 kcal/mol.

As to “SAGGMKITEEAIKNFPPGRWIQFRIPDDGYMVTIRVHDPGEIKINYRKFPPGNGEPREEQEHKIPLDSAGGS [r16_163_TrROS]”, the “folding stability dG unfold” value in data set [1] worked out at 0.825 ± 0.28 kcal/mol; in data set [2], 0.845 ± 0.24 kcal/mol; in data set [3], 0.917 ± 0.27 kcal/mol.

As to “SAGGMKITIKEDEETGEKVIEIEDEETGERVRVVFNPDGEEIEIEVPSPEVLEALKELGIEKVEVEEVSAGG [r13_511_TrROS_Hall]”, the “folding stability dG unfold” value was found to be 1.07 ± 0.063 kcal/mol in data set [1], 0.732 ± 0.13 kcal/mol in data set [2] and 0.976 ± 0.19 kcal/mol in data set [3].

On to “SAGGMKIVSESTDPSVPTSYVTIEITDPKTGKKTTIKLPQDPAAGTGSPEALAKEVREKLKLPEGVELSAGG [r13_362_JUSTAS]”, for which the “folding stability dG unfold” value came out at 1.01 ± 0.053 kcal/mol in data set [1], 0.221 ± 0.083 kcal/mol in data set [2] and 0.814 ± 0.073 kcal/mol in data set [3].

Take “SAGGMKIVSVEVVKDEETGVYVIKLTVEDPETNETYTLEVVIKNEDGELKTITVKAKSKEDALKELLKSAGG [r13_26_TrROS_Hall]”: the “folding stability dG unfold” value in data set [1] was found to be 3.6 ± 0.14 kcal/mol; in data set [2] it was 1.85 ± 0.067 kcal/mol; in data set [3], 3.1 ± 0.23 kcal/mol.

In the case of “SAGGMKKIKIVVKVPPNVTAEELAKALEDELKKKGYEVKVTVKVVKKPDGSLYVVIEVEIRPKNEKPSAGGS [r16_128_TrROS_Hall]”, the “folding stability dG unfold” value in data set [1] is 3.67 ± 0.075 kcal/mol; in data set [2], 3.04 ± 0.13 kcal/mol; in data set [3], 3.52 ± 0.099 kcal/mol.

For “SAGGMKKKIVEIEIVEVKYDEETNEVTIKIKIKNENGEEIEIEVTMSKEELEKMTPEELKKLVKELLKSAGG [r13_512_TrROS_Hall]”, the “folding stability dG unfold” value came to 2.18 ± 0.24 kcal/mol in data set [1], 2.16 ± 0.2 kcal/mol in data set [2] and 2.12 ± 0.3 kcal/mol in data set [3].

For the sequence “SAGGMKKKLLILVDSNNPNIPLEKIKEFFKKKGFDEVETLSLENIPPEKAIELAKKEKKPLLIIPTSSAGGS [r16_94_TrMRF]”, the “folding stability dG unfold” value in data set [1] turned out to be 2.21 ± 0.04 kcal/mol; in data set [2], 1.376 ± 0.012 kcal/mol; in data set [3] it was 1.97 ± 0.063 kcal/mol.

In the case of “SAGGMKKPIKAKIKIVKFEDGYLILIELPDGKIIAFKSPEELKAALEKFPEIEITEIEIIPPEEFLKKSAGG [r13_730_TrMRF]”, the “folding stability dG unfold” value in data set [1] was determined as 3.47 ± 0.19 kcal/mol; in data set [2], 1.63 ± 0.067 kcal/mol; in data set [3], 3.07 ± 0.22 kcal/mol.

In the case of “SAGGMKKYLLTLNVTLERPDSEESITLTKEVDSLEEAEKLKEEIEKKLKEEYPGRISFDVTIEEIEESAGGS [r16_475_JUSTAS]”, the “folding stability dG unfold” value in data set [1] came out at 4.15 ± 0.076 kcal/mol; in data set [2], 3.72 ± 0.1 kcal/mol; in data set [3] it was 4.13 ± 0.12 kcal/mol.

Regarding “SAGGMKLTPEAKKLAEELKKEGKKVKIEKKDGYYVLTVDGKVYKSKEDMEKAAKDPNVKKVIVIKLPSAGGS [r16_275_TrROS_Hall]”, the results for the “folding stability dG unfold” value in data set [1], in data set [2] and in data set [3] were 1.95 ± 0.18 kcal/mol, 0.519 ± 0.13 kcal/mol and 1.46 ± 0.18 kcal/mol, respectively.

With “SAGGMKPKEVIEIEITLPDGRKIRIRLVKKDGKLYLFIEVPEENEEARELAEELAKKLPGVEVEVFEPSAGG [r13_34_TrROS_Hall]”, the results for the “folding stability dG unfold” value in data set [1], in data set [2] and in data set [3] were 3.26 ± 0.12 kcal/mol, 2.41 ± 0.1 kcal/mol and 3.03 ± 0.14 kcal/mol, respectively.

Turning to “SAGGMKTITLEEAKALAEKAAEKGETVEIEVTLPDGTVVKFKVDAKTKKVELVEVKKLPAPPEDPEKKSAGG [r13_839_TrROS_Hall]”, the “folding stability dG unfold” value in data set [1] was found to be 3.07 ± 0.088 kcal/mol; in data set [2] it was 1.12 ± 0.046 kcal/mol; in data set [3], 2.68 ± 0.13 kcal/mol.

In the case of “SAGGMKTTLLKEEELPGGVKRKIYLTENSSGGYYYVVTVTTELEPPAESKVSVSSKKISPEELKKLLSAGGS [r16_45_JUSTAS]”, the “folding stability dG unfold” value worked out at 3.55 ± 0.069 kcal/mol in data set [1], 2.93 ± 0.14 kcal/mol in data set [2] and 3.32 ± 0.17 kcal/mol in data set [3].

Turning to “SAGGMKTVIVRVRRDSPEVRKALEALRKAKPGEEVELTVKGKKIRIVKIEEVDGEYYVTVEIEEEEESAGGS [r16_404_TrROS_Hall]”, the figures for the “folding stability dG unfold” value in data set [1], in data set [2] and in data set [3] were 3.96 ± 0.062 kcal/mol, 3.39 ± 0.074 kcal/mol and 3.75 ± 0.093 kcal/mol, respectively.

For the sequence “SAGGMKTVTIEYWGSLPDAVVLAKKAVEEAAKNKGKTVVTLYVWEGEPDENGVPRWKPLGKYVFVVDASAGG [r13_974_TrMRF]”, the entries for the “folding stability dG unfold” value in data set [1], in data set [2] and in data set [3] were 3.477 ± 0.034 kcal/mol, 2.44 ± 0.092 kcal/mol and 3.19 ± 0.1 kcal/mol, respectively.

As for “SAGGMKVATVTLLTRDPSSDRTFEVTVEVPDDIVEKGDIEEAIARAKQLAEERGYPILEVEVEVKEPPSAGG [r13_954_JUSTAS]”, the “folding stability dG unfold” value amounted to 0.625 ± 0.12 kcal/mol in data set [1], 1.13 ± 0.046 kcal/mol in data set [2] and 0.922 ± 0.12 kcal/mol in data set [3].

“SAGGMKVEIEIEEEPETGKVKITIKIDDVEIEIEATEEEIEKLIEEIEKIKAEPKLTEDGKLVPVIGSAGGS [r8_332_TrMRF]”: the “folding stability dG unfold” value in data set [1] was 1.8 ± 0.29 kcal/mol; in data set [2], 1.94 ± 0.24 kcal/mol; in data set [3], 1.92 ± 0.3 kcal/mol.

As for “SAGGMKVEIIRKDGKKVTLEGMTLEELLALLPEGEEYVIKVEVTVVDEKTKKKETVELTFTVPVEDLSAGGS [r16_806_TrROS_Hall]”, the “folding stability dG unfold” value was 2.47 ± 0.053 kcal/mol in data set [1], 1.18 ± 0.047 kcal/mol in data set [2] and 2.04 ± 0.075 kcal/mol in data set [3].

Take “SAGGMKVEVEVDPETGELYLKIYFPETGEVALVKIDPKTKTAEVVGSTDFVKEALPELGINNPTLVPGSAGG [r13_511_TrMRF]”: the results for the “folding stability dG unfold” value in data set [1], in data set [2] and in data set [3] were 1.59 ± 0.088 kcal/mol, 1.06 ± 0.051 kcal/mol and 1.43 ± 0.061 kcal/mol, respectively.

Regarding “SAGGMKVEVVPGGGAVVVEIPFPPTPATARLVISFHPDGTVTADLEPHPELPAELRAKLVELARELLGSAGG [r13_139_TrMRF]”, the results for the “folding stability dG unfold” value in data set [1], in data set [2] and in data set [3] were 2.31 ± 0.032 kcal/mol, 1.6 ± 0.02 kcal/mol and 2.07 ± 0.048 kcal/mol, respectively.

For the sequence “SAGGMKVYKISFPNATVTYEEETGKVTINPPDGSTKVIEISPDISIEEVAKKLAEELGFTEATITPEPSAGG [r13_852_JUSTAS]”, the “folding stability dG unfold” value came to 1.36 ± 0.057 kcal/mol in data set [1], 1.59 ± 0.095 kcal/mol in data set [2] and 1.48 ± 0.068 kcal/mol in data set [3].
